Positions count from the first letter of the chain named.
What was measured:
Test in all cases: ELISA, non-reduced antigen
non-reduced CFH = molecular target: T1, non-reduced CFH
T1 construct: also called CFH (NON-REDUCED)
T1 chain: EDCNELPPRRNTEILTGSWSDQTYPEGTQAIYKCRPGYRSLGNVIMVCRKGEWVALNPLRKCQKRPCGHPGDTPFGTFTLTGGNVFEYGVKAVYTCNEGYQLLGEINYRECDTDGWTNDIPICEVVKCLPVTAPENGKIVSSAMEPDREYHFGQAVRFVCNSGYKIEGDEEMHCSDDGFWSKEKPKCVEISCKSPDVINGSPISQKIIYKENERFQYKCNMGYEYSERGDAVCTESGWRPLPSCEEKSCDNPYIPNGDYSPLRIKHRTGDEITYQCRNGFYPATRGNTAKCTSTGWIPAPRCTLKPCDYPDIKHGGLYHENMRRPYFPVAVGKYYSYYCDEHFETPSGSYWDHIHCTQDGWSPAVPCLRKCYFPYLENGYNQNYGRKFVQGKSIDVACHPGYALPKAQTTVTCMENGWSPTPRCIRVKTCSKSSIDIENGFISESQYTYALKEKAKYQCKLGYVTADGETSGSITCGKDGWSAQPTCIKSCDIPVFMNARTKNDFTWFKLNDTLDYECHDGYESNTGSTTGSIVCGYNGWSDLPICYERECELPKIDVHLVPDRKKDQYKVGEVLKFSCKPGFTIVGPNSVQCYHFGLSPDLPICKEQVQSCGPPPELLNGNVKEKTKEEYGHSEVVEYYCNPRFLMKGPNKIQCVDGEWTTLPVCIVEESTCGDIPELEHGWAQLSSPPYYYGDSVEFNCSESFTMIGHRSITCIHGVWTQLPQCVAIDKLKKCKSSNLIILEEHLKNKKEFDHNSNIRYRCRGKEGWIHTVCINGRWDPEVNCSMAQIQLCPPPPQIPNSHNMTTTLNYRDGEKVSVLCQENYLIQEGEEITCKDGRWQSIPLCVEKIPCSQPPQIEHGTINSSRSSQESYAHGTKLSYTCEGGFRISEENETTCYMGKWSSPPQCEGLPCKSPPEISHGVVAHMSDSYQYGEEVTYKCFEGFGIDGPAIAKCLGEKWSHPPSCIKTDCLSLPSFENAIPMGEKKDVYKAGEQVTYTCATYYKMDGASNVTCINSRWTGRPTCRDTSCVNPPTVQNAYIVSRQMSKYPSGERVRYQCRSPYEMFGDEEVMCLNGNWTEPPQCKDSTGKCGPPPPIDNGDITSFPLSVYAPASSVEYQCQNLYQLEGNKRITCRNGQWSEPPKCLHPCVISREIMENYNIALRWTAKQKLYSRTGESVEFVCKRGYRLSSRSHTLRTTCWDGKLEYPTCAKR

non-reduced CFHR3 = molecular target: T2, non-reduced CFHR3
T2 construct: also called CFHR3 (NON-REDUCED)
T2 chain: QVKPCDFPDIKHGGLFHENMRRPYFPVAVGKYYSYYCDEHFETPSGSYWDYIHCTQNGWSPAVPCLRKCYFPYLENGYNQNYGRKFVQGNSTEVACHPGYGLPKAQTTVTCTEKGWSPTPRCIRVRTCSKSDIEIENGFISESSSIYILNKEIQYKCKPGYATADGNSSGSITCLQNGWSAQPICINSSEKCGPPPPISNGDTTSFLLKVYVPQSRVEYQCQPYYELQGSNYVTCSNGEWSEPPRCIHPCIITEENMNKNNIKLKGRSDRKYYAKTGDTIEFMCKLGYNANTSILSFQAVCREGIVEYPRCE

non-reduced CFHR5 = molecular target: T3, non-reduced CFHR5
T3 construct: also called CFHR5 (NON-REDUCED)
T3 chain: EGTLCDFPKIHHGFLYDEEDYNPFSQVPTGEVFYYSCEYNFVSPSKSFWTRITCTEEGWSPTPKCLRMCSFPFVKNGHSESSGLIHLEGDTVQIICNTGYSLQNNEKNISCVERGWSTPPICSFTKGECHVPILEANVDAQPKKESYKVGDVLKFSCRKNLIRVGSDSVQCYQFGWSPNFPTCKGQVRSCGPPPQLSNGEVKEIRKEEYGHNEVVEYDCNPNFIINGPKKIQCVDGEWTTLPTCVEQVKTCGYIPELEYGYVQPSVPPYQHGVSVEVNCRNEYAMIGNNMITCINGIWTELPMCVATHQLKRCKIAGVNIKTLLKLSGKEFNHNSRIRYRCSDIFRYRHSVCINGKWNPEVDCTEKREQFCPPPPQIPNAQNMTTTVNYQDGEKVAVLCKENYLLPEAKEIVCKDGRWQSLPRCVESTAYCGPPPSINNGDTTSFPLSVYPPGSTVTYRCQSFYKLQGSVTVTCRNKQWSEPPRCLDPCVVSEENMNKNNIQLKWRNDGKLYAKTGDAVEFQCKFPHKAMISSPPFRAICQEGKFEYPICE

non-reduced CFHR2 = molecular target: T4, non-reduced CFHR2
T4 construct: also called CFHR2 (NON-REDUCED)
T4 chain: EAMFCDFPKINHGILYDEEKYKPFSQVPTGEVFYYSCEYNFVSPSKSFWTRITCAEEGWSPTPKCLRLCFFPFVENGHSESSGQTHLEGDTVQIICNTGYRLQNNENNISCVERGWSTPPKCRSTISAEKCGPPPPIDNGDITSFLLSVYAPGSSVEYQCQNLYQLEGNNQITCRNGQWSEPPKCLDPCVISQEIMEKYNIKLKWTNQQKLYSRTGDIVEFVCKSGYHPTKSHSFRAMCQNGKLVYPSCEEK

B1: ATL4717 (antibody, human IgG1, kappa, V domains shown)
VH: QVQLVESGGGMVQPGRSLRLSCAASGFTFSIYGMHWVRQAPGRGLEWVAVMSFDGKTKYYADSVKGRFTISRDNSKNTLYLQMNSLRRVDTAVYYCAKGGATAAVFDSWGQGTLVTVSS
VL: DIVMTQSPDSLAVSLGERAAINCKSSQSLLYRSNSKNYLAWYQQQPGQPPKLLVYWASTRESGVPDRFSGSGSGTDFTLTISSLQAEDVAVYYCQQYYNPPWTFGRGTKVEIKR
notes: Human IgG1; also called ATL0004717; ATL04717
fold change vs isotype at 1 ug/ml (non-reduced CFH): 7.3 fold | binding result (non-reduced CFHR3): no binding (tested: 1 ug/ml) | fold change vs isotype at 1 ug/ml (non-reduced CFHR3): 0.9 fold | binding result (non-reduced CFHR5): no binding (tested: 1 ug/ml) | fold change vs isotype at 1 ug/ml (non-reduced CFHR5): 0.9 fold | fold change vs isotype at 1 ug/ml (non-reduced CFHR2): 4.3 fold

B2: ATL5170 (antibody, human IgG1, kappa, V domains shown)
VH: B1 VH with M11V, I31N, R43K, M51T, R88A, V89E, F106L
VL: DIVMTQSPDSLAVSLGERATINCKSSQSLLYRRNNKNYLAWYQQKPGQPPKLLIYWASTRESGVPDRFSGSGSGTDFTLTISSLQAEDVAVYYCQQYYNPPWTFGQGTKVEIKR
notes: IgG1; also called ATL_0005170
fold change vs isotype at 1 ug/ml (non-reduced CFH): 10 fold | binding result (non-reduced CFHR3): no binding (tested: 1 ug/ml) | fold change vs isotype at 1 ug/ml (non-reduced CFHR3): 1 fold | binding result (non-reduced CFHR5): no binding (tested: 1 ug/ml) | fold change vs isotype at 1 ug/ml (non-reduced CFHR5): 1 fold | fold change vs isotype at 1 ug/ml (non-reduced CFHR2): 1.3 fold
